The data set can be described thus: yeast display, Sf9 membrane polyspecificity reagent, FACS + sequencing; frameworks hold sequencing errors. Put shortly:
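After 36–48 hours of galactose induction, yeast (Saccharomyces cerevisiae BJ5465) displaying a synthetic nanobody library were stained at 4 °C for 1 hour with 10% biotinylated, detergent-solubilized Sf9 membrane reagent. Streptavidin microbeads enriched the stained cells before FACS sorting into low and high (top ~1%) gates on anti-HA and streptavidin fluorescence. Each clone's polyreactivity label reflects its gate of origin.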
In the case of “QVQLVESGGGLVQAGGSLRLSCAASGRTSLLYAMGWYRQAPGKERELVATISIGGSTYYADSVKGRFTISRDNAKKTVYLQMKSRKPEDTAVYYCAADVWWFFQPSTLGDFEYWGQGTQVTVSS”, the “polyreactivity (PSR sort gate)” value is recorded as “low polyreactivity”.

For “QVQLVESGGGLVQAGGSLRLSCAASGRTSLVYAMGWYRQAPGKERELVAAITSSGGTTYYADSVKGRFTISRDNAKNTVYLQMNSLKPEDTAVYYCAADVDVSYWRMEYWGQGTQVTVSS”, the “polyreactivity (PSR sort gate)” value is on record as “high polyreactivity”. For “QVQLVESGGGLVQAGGSLRLSCAASGRTSLVYAMGWYRQAPGKERQLVAAISRGGTTNYADSVKGRFTISRDNAKNTVYLQMNSLKPEDTAVYYCAARTIYHVRPMYYWGQGTQVTVSS”, the “polyreactivity (PSR sort gate)” value is “high polyreactivity”. Take “QVQLVESGGGLVQAGGSLRLSCAASGRTSPGYAMGWYRQAPGKEREFVAGISRGGGSTYYADSVKGRFTISRDNAKNTVYLQMNSLKPEDTEVYYCNVRGPGFYWNWGQSHYYGYDYWGQGTQVTVSS”: the “polyreactivity (PSR sort gate)” value is reported as “high polyreactivity”. Consider “QVQLVESGGGLVQAGGSLRLSCAASGRTSQINAMGWYIQAPGKERELVAAITRGGGITYYADSVKGRFTISRDNAKNTVYLQMNSLKPEDTAVYYCATRGSSFVQYRTRYGYWGQGTQVTVSS”, for which the “polyreactivity (PSR sort gate)” value was “high polyreactivity”.

As for “QVQLVESGGGLVQAGGSLRLSCAASGRTSRYYAMGWYRQAPGKERELVAAISSSGGNTYYADSVKGRFTISRDNAKNTVYLQMNSLKPEDTAVYYCNAYYPIRSSPYGYYYWGQGTQVTVSS”, the “polyreactivity (PSR sort gate)” value is “high polyreactivity”. As for “QVQLVESGGGLVQAGGSLRLSCAASGRTSSINAMGWYRQAPGKERELVAVITGGGRTSYADSVKGRFTISRDNAKNTVDLQMNSLIPEDTAVYYCNATRSYYGYYYWGQGTQVTVSS”, the entry is “high polyreactivity”; as for “QVQLVESGGGLVQAGGSLRLSCAASGRTSSTYDMGWYRLAPGKERELVADITWYGGSTYYADSVKGRFTISRDNAKNTVYLQMNSLIPEDTAVYYCAAERKDGGYGYGFYWGVVGLDYWGQGTQVTVSS”, “low polyreactivity”.

Regarding “QVQLVESGGGLVQAGGSLRLSCAASGRTSSVYAMGWYRQAPGKESELVAAINRSDGGTYYADSVKGRFTISRDNAKNTVYLQMNSLKPEDTAVYYCARRYYYQYRYDYWGQGTQVTVSS”, the “polyreactivity (PSR sort gate)” value is reported as “high polyreactivity”. The entry for “QVQLVESGGGLVQAGGSLRLSCAASGRTSSYTMGWYRQAPGKERELVAAITRRGVSTYYADSLKGRFTISRDNAKNTVYFQMNSLKAEDTAVYYCAVGPRASFGYGYWGQGTQVTVSS” is “high polyreactivity”; for “QVQLVESGGGLVQAGGSLRLSCAASGRTSVPYAMGWYRQAPGKERELVAAITSGGSTYYADSVKGRFTISRDNAKNTVYLQMNSQKPEDTAVYYCAASQPHSAPYTASYGSWGQGTQVTVSS” it is “low polyreactivity”. The entry for “QVQLVESGGGLVQAGGSLRLSCAASGRTSVRYAMGWYRQAPGKERELVAAISWSGGSTYYADSVKGRFTISRDNAKNTVYLQMNSLKPEDTAVYYCAAERGPTNHTSYPWYEYDYWGQGTQVTVSS” is “low polyreactivity”. In the case of “QVQLVESGGGLVQAGGSLRLSCAASGRTSVVNAMGWYRQAPGKERELVAAITSGGSTHYADSVKGRFTISRDNAKNTVYLPMNSLKPEDTAVYYCNARDRRRTNLLDYWGQGTQVTVSS”, the “polyreactivity (PSR sort gate)” value is “low polyreactivity”. The entry for “QVQLVESGGGLVQAGGSLRLSCAASGRTSWVYAMGWYRQAPGTERELVASIRKRTVVYADSVKGRFTISRDNAKNTVYLQMNSLKPEDTAVYYCNADTTFYGYRTYRPENYWGQGTQVTVSS” is “high polyreactivity”; for “QVQLVESGGGLVQAGGSLRLSCAASGRTSWYYAMGWYRQAPGKERELVAAITASGGSTYADSVKWRFTISRDNAKNTVYLQMNSLKPEDTAVYYCAAERPYSRVGYYYWGQGTQVTVSS” it is “high polyreactivity”.

Take “QVQLVESGGGLVQAGGSLRLSCAASGRTSYRYAMGWYRQAPGKERELVAAISWSGGSTYYADSVKGRFTISRDNAKNTVSLQMNSLKPDDTAVYYCNARQHQVRWWLREFDYWGQGTQVTVSS”: the “polyreactivity (PSR sort gate)” value was “low polyreactivity”. Turning to “QVQLVESGGGLVQAGGSLRLSCAASGRTSYTNAMGWYRQAPGKERELVAAINYSGGSTYYADSVKGRFTISRDNAKNTVYLQMNSLKPEDTAVYYCAAERYYWYTEMGYWGQGTQVTVSS”, the “polyreactivity (PSR sort gate)” value is recorded as “high polyreactivity”. The entry for “QVQLVESGGGLVQAGGSLRLSCAASGRTSYTYTMGWYRQAPGKERELVAAISWNAGSTYYADSVKGRFTISRDNAKNTVSLQMNSLKPEDTAVYYCNRRIFGGQRMYYWGQGTQVTVSS” is “high polyreactivity”; for “QVQLVESGGGLVQAGGSLRLSCAASGRTSYTYVMGWYRQAPGKERELVAAIRLSGGNTYYADPVKGRFTISRDNAKNTVYLQMNSLKPEDTAVYYCAAQYWRHRKAYGYWGQGTQVTVSS” it is “high polyreactivity”; for “QVQLVESGGGLVQAGGSLRLSCAASGRTSYVYAMGWYRQAPGKERELVASITGSAGSTYYADSVKGRFTISRDNAKNTVYLQMNSLKPEDTAVYYCAVLRWRSWSSPGYYWGQGTQVTVSS” it is “high polyreactivity”. Consider “QVQLVESGGGLVQAGGSLRLSCAASGRTVPGYVMGWYRQARGKERELVAAITSGGSTNYADSVKGRFTISRDNAKNTVYLQMNSLKPEDTAVNYCNADRNRWPWSVFTSEYWGQGTQVTVSS”, for which the “polyreactivity (PSR sort gate)” value is on record as “low polyreactivity”. “QVQLVESGGGLVQAGGSLRLSCAASGRTVSNYAMGWSRQAPGKERELVSAISTGGTSTYYADSVKGRFTISRDYAKNTVYLQMNSLKPEDTAVYYCIAVGGWVTHWLLREGDYWGQGTQVTVSS”: the “polyreactivity (PSR sort gate)” value was “low polyreactivity”. On to “QVQLVESGGGLVQAGGSLRLSCAASGRTYRYYAMGWYRQAPGKERELVAAITASTGRTYYADSVKGRFTISRDNAKNSVYLQMNRLKPEDTAVYYCDARQSSYRYPGSYEYWGQGTQVTVSS”, for which the “polyreactivity (PSR sort gate)” value is given as “high polyreactivity”.

For the sequence “QVQLVESGGGLVQAGGSLRLSCAASGRTYSQNAMGWYRQSPGKERELVAAIRRGGSTNYADSVKGRFTISRDNAKNTVYLQMNSLKPEDSAVYDCAADLRRNGWGFDYWGLGTQVTVSS”, the “polyreactivity (PSR sort gate)” value is “high polyreactivity”. As for “QVQLVESGGGLVQAGGSLRLSCAASGRTYSYYAMGSYRQAPGKERELVAAITTSGGSTYYADSVKGRFTISRDNAKNTVYLQMNSLKPEDTAVYYCNALSSGVYLYDYWGQGTQVTVSS”, the entry is “high polyreactivity”; as for “QVQLVESGGGLVQAGGSLRLSCAASGRTYTRYALGWYRQAPGKERELVAAISGGGGSTYYADSVKGRFTISRDNAKNTVYLQMNSLKPEDTAVYYCNAAARGSSFDYWGQGTQVTVSS”, “low polyreactivity”; as for “QVQLVESGGGLVQAGGSLRLSCAASGRTYWYYVMGWYRQAPGTERELVAAISSSGGRTYYADSVKGRFTISRDNAKNTVYLQMNSLKPEDTAVYYCNVDAWYPYQGFLVGYYYWGQGTQVTVSS”, “low polyreactivity”.

Take “QVQLVESGGGLVQAGGSLRLSCAASGRVFSTNAMGWYRQAPGKERELVAGINSGGSTNYADSVKGRFTISRDNAKNTVSLQMNSLKPEDTAVYYCNATLRVESWYVHYGVDYDYWGQGTQVTVSS”: the “polyreactivity (PSR sort gate)” value is “low polyreactivity”. For “QVQLVESGGGLVQAGGSLRLSCAASGSFIVQNSMGWYRQAPAKERELVAANTRGGSTYYADSVKGRFTISRDNAKNTVYLQMNSLKPEDTAVYYCAAYWYYYLMDYWGQGTQVTVSS”, the “polyreactivity (PSR sort gate)” value is “low polyreactivity”. For “QVQLVESGGGLVQAGGSLRLSCAASGSIFAAYTMGWYRQAPGKERELVAAISVSTVSTYYADSVKGRFTISRDNAKNTVYLLMNSLKPEDTAVYYCNAVATDSYPEKDEHDSWGQGTQVTVSS”, the “polyreactivity (PSR sort gate)” value is recorded as “low polyreactivity”.

In the case of “QVQLVESGGGLVQAGGSLRLSCAASGSIFACYAMGRYRQAPGKERELVATITWSGGSTYYADSVKGRFTISRDNAKNTVYLQMNSLKPEDTAVYYCAAEVVGIWYDLWYQGDYWGQGTQVTVSS”, the “polyreactivity (PSR sort gate)” value is given as “low polyreactivity”. As for “QVQLVESGGGLVQAGGSLRLSCAASGSIFAGNAMGWYRQAPGKEREFVAAITWSGGSTYYADSVKGRFTISRDNAKNTVYLQMNSLKPEDTAVYYCAARAYKRKTYYYWGQGTQVTVSS”, the entry is “high polyreactivity”; as for “QVQLVESGGGLVQAGGSLRLSCAASGSIFAGNAMGWYRQSPGKERELVAAITWRSGRTYYADSVKGRFTISRDNAKNTVYLEMNSLKPEDTAVYYCARGRYGYTAPFRRWYFRYDYWGQGTQVTVSS”, “high polyreactivity”. With “QVQLVESGGGLVQAGGSLRLSCAASGSIFAGYAMGWYRQAPGKDRELVAAINWTGDSTYYADSVKGRFTNSRDNAKNTVYLQMNSLKQEDTAVYYCAAIRRQKGLWDYYYWGQGTQVTVSS”, the “polyreactivity (PSR sort gate)” value is “low polyreactivity”. For the sequence “QVQLVESGGGLVQAGGSLRLSCAASGSIFAGYAMGWYRQAPGKERELVAAISKSAGSTYYADSVKGRFTISRDNAKNTVYLQMNSLKAEDTAVYYCAARTFNTYPSYYYWGQGTQVTVSS”, the “polyreactivity (PSR sort gate)” value is reported as “high polyreactivity”.

Regarding “QVQLVESGGGLVQAGGSLRLSCAASGSIFAGYAMGWYRQAPGKERELVAAISRRGGRTYYADSVKGRFTISRDNAKNTVYLQMNSLKPEDTAVYYCARRVDYISSKYGYWGQGTQVTVSS”, the “polyreactivity (PSR sort gate)” value is listed as “high polyreactivity”. Turning to “QVQLVESGGGLVQAGGSLRLSCAASGSIFAGYAMGWYRQAPGKERELVATITSGGSTNYADSVKGRFTISRDNAKNTVYLQMNSLKPEDTAVYYCAADVEDSIPSSYTGGEYDYWGQGTQGTVSS”, the “polyreactivity (PSR sort gate)” value is “low polyreactivity”.

Regarding “QVQLVESGGGLVQAGGSLRLSCAASGSIFAHNAMGWYRKAPGKERELVAAISSGGSTNYADSVKGRFTISRDNAKNTVYLQMISLKPEDTAVYYCAAVQYAPKWWGEYDYWGQGTQVTVSS”, the “polyreactivity (PSR sort gate)” value is recorded as “low polyreactivity”. On to “QVQLVESGGGLVQAGGSLRLSCAASGSIFAHYTMGWYRQAPGKERELVAVISRSGARTYYADSVKGRFTISRDNAKNTVYLQMNSLKPEDTAVYYCAATWGSVQKGTYYYWGQGTQVTVSS”, for which the “polyreactivity (PSR sort gate)” value is “low polyreactivity”.

As to “QVQLVESGGGLVQAGGSLRLSCAASGSIFAINAMGLYRQAPGKERELVARISWSGGRTYYADSVKGRFTISRDNAKNSVYLQMNSLKPEVTAVYYCAARYYWGQVTQVTVSS”, the “polyreactivity (PSR sort gate)” value is “high polyreactivity”.
